Results: patent US20180079804A1

Assays:
[1] = molecular target: T1, Tau(pS422) fragment SEQ ID NO: 03 (human); assay: ELISA
T1 sequence (peptide, phosphoserine at position 7 (position 422 of SEQ ID NO, 01)): SIDMVDXPQLATLAD

[2] = molecular target: T1, Tau(pS422) fragment SEQ ID NO: 03 (human); assay: SPR capture assay (Example 10), 25 C

B1: VH00/VL00 (antibody, V domains shown)
VH: QSVEESGGRLVTPGTPLTLTCTVSGFSLSSNAINWVRQAPGKGLEWIGYIAVSGNTYYASWAKGRFTISKASTTVDLKMTSPTAEDTGTYFCGKSNIWGPGTLVTVSL
VL: AQVLTQTTSPVSAAVGSTVTISCQSSQSVRTNKLAWFQQKPGQPPKRLIYSASTLDFGVPSRFSASGSGTQFTLTISDVQCDDAATYYCLGYFDCSIADCVAFGGGTEVVVK
[1]
  EC50: 0.04 µg/mL
[2]
  Kd: 1.96 nM
  koff: 0.000265 s⁻¹
  kon: 135000 M⁻¹ s⁻¹

B2: VH76A6/VL145B12 (antibody, V domains shown)
VH: EVQVLESGGGLVQPGGSLRLSCAVSGFSLSNSAINWVRQAPGKGLEWVGYIAVSGNTYYASWAKGRFTISRDNSKNTVYLQMNSLRAEDTAVYYCGKSNIWGQGTLVTVSS
VL: AQVMTQSPSSLSASVGDRVTITCRSSQSVRSNKLAWFQQKPGQPPKRLIYAASNLDFGVPSRFSGSGSGTEFTLTISSLQPEDFATYYCLGYFDSSADIVAFGGGTKVEIK
[1]
  EC50: 0.0403 µg/mL
[2]
  Kd: 2.61 nM
  koff: 0.000628 s⁻¹
  kon: 240000 M⁻¹ s⁻¹
